Here are results for one substance from paper PMC8484680.

Assay [1] has as its target PsFucS1, fucoidan active sulfatase (subfamily S1_13) from Pseudoalteromonas sp. MB47 (Pseudoalteromonas sp. MB47). The assay can be described thus: crystal structure; X-ray, 2.50 Å, space group P212121, six molecules in the asymmetric unit; crystals grown at 20 °C in 0.1 M sodium acetate pH 4.6, 0.1 M NaCl, 20% PEG 3350; interfaces analysed with PISA.
For assay [2] the target is unchanged. As to the kind of experiment: SEC; analytical SEC, HiLoad 16/600 Superdex 200 pg, room temperature, 200 µl of His-tagged PsFucS1 at 6 mg/ml, 50 mM Tris-HCl pH 8.0, 100 mM NaCl; calibrated with standards of 13.7-440 kDa.

The stoichiometry N is a count of units in the complex or per binding partner. As for “PsFucS1, fucoidan active sulfatase (subfamily S1_13) from Pseudoalteromonas sp. MB47 (enzyme)”, the stoichiometry N in assay [1] and in assay [2] was 6 throughout.
